Measured values: patent EP4324846A1 (Eberhard Karls Universität Tübingen, Medizinische Fakultät, dated 2024)
Each block holds one binder with its values, some of them ahead of it.

Experiments:
[1] = target: T1, EGF (Peprotech AF-100-15) (UniProt P01133 971-1023); assay: SPR, EGF immobilized; reference d3-wt
T1 construct: Immobilized on a CM5 chip by amine coupling; Also added at 400 pM in the A431 proliferation assay; also called epidermal growth factor

[2] = target: T1, EGF (Peprotech AF-100-15); assay: SPR (Biacore X100), EGF immobilized on CM5, multi-cycle kinetics
[3] = target: T2, d3-wt (human EGFR domain 3) (human, UniProt P00533 337-504, limits assumed); assay: SPR (Biacore X100), HB-EGF immobilized on CM5, multi-cycle kinetics
T2 construct: Expressed in E. coli from pET-28a(+) and purified on a HisTrap column; Monomeric fraction used; also called wild type d3; wild-type d3 domain

T1 sequence (P01133 971-1023 limits assumed): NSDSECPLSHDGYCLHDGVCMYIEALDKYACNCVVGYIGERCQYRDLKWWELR

fold tighter binding than d3-wt [1]: 5 fold
Kd [2]: 10 nM
B1: dd3-1 (designed binder)
chain: ANGIGIGEFKDSLSIWAWNIKHFKNARSISGDLHILPVAFRGDSFTHTPPLEPKELEILKTVKEITGYLLVQAWPENRTDLHAFENLEIIRGRTKQHGQFSLAVVSLNVTSLGLRSLKEISDGDVIMSGNKNLKMANEMNWKKMFGTSGQKTKIISNRGE
notes: Expressed in E. coli from pET-28a(+) and purified on a HisTrap column; also called design

Kd [3]: 263 nM
B2: HB-EGF (R&D Systems 259-HE-050/CF) (ligand, UniProt Q99075 63-148, looked up)
chain: DLQEADLDLLRVTLSSKPQALATPNKEEHGKRKKKGKGLGKKRDPCLRKYKDFCIHGECKYVKELRAPSCICHPGYHGERCHGLSL
notes: Immobilized on a CM5 chip by amine coupling
